Assay results reported in PMC12087824 (2025).

Biological target: human CD40 receptor (hCD40) (human, UniProt P25942 21-277)
Assay: BLI

human CD40 receptor (hCD40), sequence (P25942 21-277): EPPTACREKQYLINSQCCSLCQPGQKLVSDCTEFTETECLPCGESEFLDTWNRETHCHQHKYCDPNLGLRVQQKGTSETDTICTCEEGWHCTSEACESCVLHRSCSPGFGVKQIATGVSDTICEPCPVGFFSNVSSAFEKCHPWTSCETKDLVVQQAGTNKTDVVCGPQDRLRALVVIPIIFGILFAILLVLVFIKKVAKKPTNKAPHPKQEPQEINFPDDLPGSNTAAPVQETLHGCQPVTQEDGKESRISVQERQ

B1: DARPin WT_(CD40) binding the human CD40 receptor (designed binder)
chain: GSDLGKKLLQAARAGQLDEVRELLKAGADVNAKDTWGFTPLHIAAESGHLEIVEVLLKAGADVNAKDVQGRTPLHIAAHSGHLEIVEVLLKAGADVNAKDFRGWTPLHLAAWSGHLEIVEILLKAGADVNAQDKSGKTPADLAARAGHQDIAEVLQKAA
For B1, which Kd is on record?
Its Kd is 288 nM.
